The values below come from patent publication US10584169B2, “Anti-CD73 antibodies and uses thereof” (I-MAB BIOPHARMA US LIMITED, dated 2020).

Assay [1] deals with T1, Recombinant human CD73 protein (human).
T1 chain: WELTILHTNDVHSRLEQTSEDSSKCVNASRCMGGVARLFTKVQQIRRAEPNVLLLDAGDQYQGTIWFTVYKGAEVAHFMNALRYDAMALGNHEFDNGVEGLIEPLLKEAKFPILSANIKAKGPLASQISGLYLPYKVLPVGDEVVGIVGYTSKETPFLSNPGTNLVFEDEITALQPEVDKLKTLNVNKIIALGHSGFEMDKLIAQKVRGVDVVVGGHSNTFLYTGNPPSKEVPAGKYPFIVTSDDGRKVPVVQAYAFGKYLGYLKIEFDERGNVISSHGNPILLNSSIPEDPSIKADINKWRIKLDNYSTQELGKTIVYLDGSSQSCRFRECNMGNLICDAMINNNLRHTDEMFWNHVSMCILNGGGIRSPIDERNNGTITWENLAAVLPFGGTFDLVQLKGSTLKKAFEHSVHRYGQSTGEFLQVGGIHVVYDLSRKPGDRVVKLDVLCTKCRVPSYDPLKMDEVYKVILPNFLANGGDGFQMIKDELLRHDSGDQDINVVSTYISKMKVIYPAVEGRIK

The target of assay [2] is T2, Human CD73 on the cell surface (human).
T2 chain: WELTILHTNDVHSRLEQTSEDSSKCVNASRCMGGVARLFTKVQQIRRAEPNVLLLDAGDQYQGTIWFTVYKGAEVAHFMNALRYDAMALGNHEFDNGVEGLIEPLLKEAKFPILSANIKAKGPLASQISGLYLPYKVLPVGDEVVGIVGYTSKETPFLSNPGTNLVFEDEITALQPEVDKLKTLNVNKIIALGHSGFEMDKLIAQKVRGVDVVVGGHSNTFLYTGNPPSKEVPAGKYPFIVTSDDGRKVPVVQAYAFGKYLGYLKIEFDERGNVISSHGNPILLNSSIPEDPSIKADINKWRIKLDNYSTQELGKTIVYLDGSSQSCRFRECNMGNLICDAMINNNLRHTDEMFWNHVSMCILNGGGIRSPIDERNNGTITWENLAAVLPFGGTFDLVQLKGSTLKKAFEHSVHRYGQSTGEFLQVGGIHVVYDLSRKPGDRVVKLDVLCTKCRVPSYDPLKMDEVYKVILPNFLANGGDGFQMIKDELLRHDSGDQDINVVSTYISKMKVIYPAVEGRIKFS

The target in assay [3] is T2, Human CD73 on the cell surface. Description: flow cytometry on SK-OV-3 cells.
Assay [4] concerns the target T1, Recombinant human CD73 protein. The assay can be described thus: ELISA, plate-coated recombinant human CD73.
Assay [5] shares this target. Description: Biacore T200, antibody captured, recombinant human CD73 as analyte, 1:1 model. As for the experimental part: FIG. 3 plots the binding kinetics of 101-Mu and mAb1 with recombinant human CD73 (recombinant human CD73 was set as an analyte with serial concentrations (100, 50, 25, 12.5, 6.25, 3.125 nM)). The binding kinetics assay of antibody to antigen was performed using Biacore T200 system through a human antibody capture approach. The […] were immobilized on CM5 sensor chip according to the manufactory's instruction. The test antibody was injected and captured by the immobilized anti-human Fc IgG. And then serial concentrations of the antigen was individually injected, and the binding profile was recorded for each concentration antigen analyte, respectively. The assay system was regenerated by injection of 10 mM Glycine-HCl pH 1.5 for 30 seconds. The running buffer was HBS-EP+ (10 mM HEPES, pH 7.4, 150 mM NaCl, 3 mM EDTA and 0.05% P20). The assay temperature was 25° C., and the association and dissociation time were 180 and 600 seconds, respectively.
On the technique in general: In SPR one partner is held on a chip, and binding of the other changes the refractive index at the surface.

Assay [6] has the same target.
The target in assay [7] is T2, Human CD73 on the cell surface.
Assay [8] shares this target. The assay can be described thus: flow cytometry on SK-OV-3 cells. As for the experimental part: Human ovarian cancer cell line (SK-OV-3 cells) which endogenously expressed human CD73 on the surface were stained with different concentrations of IgG control, chimeric anti-CD73 (101-Mu-Chimeric, or 101-Chi) and humanized anti-CD73 antibodies (Hu101-25 and Hu101-28) at […] for 30 mins. Then, the cells were washed with PBS three times, followed by incubation with APC-labeled anti-human Fc specific antibody (Invitrogen) at 4° C. for 30 mins. Binding was measured using an FACSCanto (Becton-Dickinson), and the results are presented in FIG. 8 (see also the table below).

The target in assay [9] is T1, Recombinant human CD73 protein. Description: Biacore T200, antibody captured by anti-human Fc IgG, antigen as analyte, 1:1 model. As for the experimental part:
For the binding assay, the Biacore T200 system was used through human antibody capture approach. The anti-human Fc IgG were immobilized on CM5 sensor chip according to the manufactory's instruction. The test antibody was injected and captured by the immobilized anti-human Fc IgG. And then serial concentrations of antigen was individually injected, and the binding profile was recorded for each concentration antigen analyte, respectively. The assay system was regenerated by injection of 10 mM Glycine-HCl pH 1.5 for 30 seconds. The running buffer was HBS-EP+ (10 mM HEPES, pH 7.4, 150 mM NaCl, 3 mM EDTA and 0.05% P20). The assay temperature was 25° C., and the association and dissociation time were 180 and 600 seconds, respectively.

Assay [10] shares this target.
Assay [11] deals with T2, Human CD73 on the cell surface.
The target in assay [12] is T1, Recombinant human CD73 protein. Description: ELISA with recombinant human CD73 (2 µg/ml). On the technique in general: An ELISA detects its analyte on a solid surface through an enzyme-linked reagent.

Broadly, the EC50 is the concentration that produces a half-maximal response. One may read the Kd as a measure of binding affinity in units of concentration. As usually defined, the koff is a measure of how fast the partners let go of each other. As a reminder, the kon is the second-order rate constant of association.

Like-named read-outs stand apart in the source and are kept apart here.

B1: 101-Mu (antibody, V domains shown)
VH: DVQLQESGPGLVKPSQSLSLTCSVTGYSITSGYYWNWIRQFPGNKLEWMGYINYGGSNGYNPSLKSRISITRDTSKNQFFLKLNSVTTEDTATYYCARDYDAYYEALDDWGQGTSVTVSS
VL: QIVLSQSPAILSASPGEKVTMTCRASSRVNYMHWYQQKPGSSPKPWISATSNLASGVPARFSGSGSGTSYSLTISRVETEDAATYYCQQWSSNPPTFGGGTKLEIK
For the molecule B1, in [1], the IC50 of inhibition of CD73 enzymatic activity (CellTiter-Glo luminescence, residual CD73 activity) worked out at 3.89 nM. For the same molecule, the IC50 of inhibition of cellular CD73 enzyme activity on SK-OV-3 cells (CellTiter-Glo luminescence) in [2] was found to be 4.62 nM. The molecule also came in with an EC50 in assay [3] of 0.54 nM. For the same molecule, in assay [4], the EC50 was determined as 0.08 nM. In assay [5], the Kd stood at 0.421 nM, the koff amounted to 3.42e-05 s⁻¹ and the association rate constant (kon) stood at 81300 M⁻¹ s⁻¹.

B2: 101-Mu chimera (antibody, V domains shown)
VH: DVQLQESGPGLVKPSQSLSLTCSVTGYSITSGYYWNWIRQFPGNKLEWMGYINYGGSNGYNPSLKSRISITRDTSKNQFFLKLNSVTTEDTATYYCARDYDAYYEALDDWGQGTSVTVSS
VL: QIVLSQSPAILSASPGEKVTMTCRASSRVNYMHWYQQKPGSSPKPWISATSNLASGVPARFSGSGSGTSYSLTISRVETEDAATYYCQQWSSNPPTFGGGTKLEIK
Take B2: in assay [6], the IC50 (nM), inhibition of recombinant human CD73 enzymatic activity was determined as 4.25 nM and the Max. Inhibition (%), recombinant human CD73 enzymatic activity was determined as 98%. In addition, in assay [7], the IC50 (nM), inhibition of cellular CD73 enzyme activity on SK-OV-3 cells was 1.82 nM and the Max. Inhibition (%), cellular CD73 enzyme activity on SK-OV-3 cells was determined as 100%. Moreover, in assay [8], a half-maximal response (EC50) required 1.35 nM.

B3: Hu101-25 (antibody, V domains shown)
VH: EVQLQESGPGLVKPSETLSLTCAVSGYSISSGYYWNWIRQPPGKGLEWIGYINYGGSNGYNPSLKSRVTISRDTSKNQFSLKLSSVTAADTAVYYCARDYDAYYEALDDWGQGTTVTVSS
VL: EIVLSQSPATLSLSPGERATLSCRASSRVNYMHWYQQKPGQSPRPWISATSNLASGVPARFSGSGSGTSYTLTISSLEPEDFAVYYCQQWSSNPPTFGGGTKVEIK
Take B3: in [6], the IC50 (nM), inhibition of recombinant human CD73 enzymatic activity worked out at 4.72 nM and the Max. Inhibition (%), recombinant human CD73 enzymatic activity came to 99%. In [7], the IC50 (nM), inhibition of cellular CD73 enzyme activity on SK-OV-3 cells was found to be 2.98 nM and the Max. Inhibition (%), cellular CD73 enzyme activity on SK-OV-3 cells is 100%. The molecule further registered an EC50 in assay [8] of 2.38 nM. Besides, in assay [9], the Kd amounted to 0.747 nM, the koff was determined as 5.51e-05 s⁻¹ and the kon was found to be 73700 M⁻¹ s⁻¹.

B4: Hu101-28 (antibody, V domains shown)
VH: EVQLQESGPGLVKPSETLSLTCAVSGYSITSGYYWNWIRQPPGKKLEWMGYINYGGSNGYNPSLKSRITISRDTSKNQFSLKLSSVTAADTAVYYCARDYDAYYEALDDWGQGTTVTVSS
VL: EIVLSQSPATLSLSPGERATLSCRASSRVNYMHWYQQKPGQSPRPWISATSNLASGVPARFSGSGSGTSYTLTISSLEPEDFAVYYCQQWSSNPPTFGGGTKVEIK
As to B4, in [6], the IC50 (nM), inhibition of recombinant human CD73 enzymatic activity stood at 9.35 nM and the Max. Inhibition (%), recombinant human CD73 enzymatic activity was 98%. In [7], this molecule returned an IC50 (nM), inhibition of cellular CD73 enzyme activity on SK-OV-3 cells of 2.52 nM and a Max. Inhibition (%), cellular CD73 enzyme activity on SK-OV-3 cells of 100%. In assay [10], the IC50 of inhibition of recombinant human CD73 activity (CellTiter-Glo) turned out to be 2.84 nM. In assay [11], the IC50 of inhibition of cell-bound CD73 activity on MDA-MB-231 cells (CellTiter-Glo) stood at 8.21 nM and the IC50 of inhibition of cell-bound CD73 activity on SK-OV-3 cells (CellTiter-Glo) was found to be 2.52 nM. For the same molecule, in assay [3], the EC50 was 0.67 nM. The molecule further came in with an EC50 in assay [8] of 1.35 nM. Also, the EC50 in [12] came out at 0.0887 nM.
